# Where “and” joins values, the source holds several entries; their conditions need not be identical. Equal values may be shown once. Positions of bridges follow the written chain, without caps; N, C: chain ends. Chains are numbered I, II in the order given. No end group written: not given here.
# T1: human RXFP1 (human, UniProt Q9HBX9 1-757)
# T1 sequence (looked up): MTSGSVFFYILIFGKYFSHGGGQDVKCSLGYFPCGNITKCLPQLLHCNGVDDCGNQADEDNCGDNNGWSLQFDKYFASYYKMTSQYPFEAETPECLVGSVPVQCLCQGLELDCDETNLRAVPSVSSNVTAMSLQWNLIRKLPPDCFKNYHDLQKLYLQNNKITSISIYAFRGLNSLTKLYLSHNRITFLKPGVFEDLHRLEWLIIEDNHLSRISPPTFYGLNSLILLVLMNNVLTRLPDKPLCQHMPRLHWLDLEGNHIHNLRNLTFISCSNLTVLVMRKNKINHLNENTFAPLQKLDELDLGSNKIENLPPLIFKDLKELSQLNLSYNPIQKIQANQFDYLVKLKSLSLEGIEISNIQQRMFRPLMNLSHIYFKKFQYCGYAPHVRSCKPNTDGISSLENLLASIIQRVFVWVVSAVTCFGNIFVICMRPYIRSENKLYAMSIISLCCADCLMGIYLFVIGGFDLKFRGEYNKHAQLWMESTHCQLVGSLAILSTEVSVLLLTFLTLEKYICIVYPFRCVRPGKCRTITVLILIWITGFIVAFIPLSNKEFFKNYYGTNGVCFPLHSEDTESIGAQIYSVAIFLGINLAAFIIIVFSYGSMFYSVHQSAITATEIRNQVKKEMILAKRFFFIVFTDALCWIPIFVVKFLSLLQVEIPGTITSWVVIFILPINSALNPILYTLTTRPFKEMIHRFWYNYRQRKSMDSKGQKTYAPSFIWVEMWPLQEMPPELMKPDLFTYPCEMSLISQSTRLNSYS
# T2: mouse RXFP1 (mouse, UniProt Q6R6I7 1-758)
# T2 sequence (looked up): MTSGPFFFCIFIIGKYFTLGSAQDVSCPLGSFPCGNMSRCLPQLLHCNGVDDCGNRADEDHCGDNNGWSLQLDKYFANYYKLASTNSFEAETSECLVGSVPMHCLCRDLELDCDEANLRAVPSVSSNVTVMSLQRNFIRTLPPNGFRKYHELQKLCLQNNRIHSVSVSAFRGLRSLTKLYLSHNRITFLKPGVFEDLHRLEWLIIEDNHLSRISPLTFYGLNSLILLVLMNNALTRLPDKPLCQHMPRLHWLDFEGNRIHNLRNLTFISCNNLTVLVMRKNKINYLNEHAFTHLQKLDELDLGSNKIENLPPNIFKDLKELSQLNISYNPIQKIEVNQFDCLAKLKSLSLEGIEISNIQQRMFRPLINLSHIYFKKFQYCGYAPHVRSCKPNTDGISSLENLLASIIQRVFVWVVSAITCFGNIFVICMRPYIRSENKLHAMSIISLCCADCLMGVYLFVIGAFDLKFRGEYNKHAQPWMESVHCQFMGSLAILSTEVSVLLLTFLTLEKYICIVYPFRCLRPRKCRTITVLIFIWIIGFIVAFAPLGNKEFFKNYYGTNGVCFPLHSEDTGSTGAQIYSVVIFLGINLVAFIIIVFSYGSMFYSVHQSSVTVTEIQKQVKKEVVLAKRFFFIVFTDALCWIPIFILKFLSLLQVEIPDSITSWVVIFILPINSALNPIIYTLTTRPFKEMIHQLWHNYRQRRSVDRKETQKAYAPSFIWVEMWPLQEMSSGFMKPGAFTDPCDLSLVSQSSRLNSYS
# T3: rat RXFP1 (rat, UniProt Q6R6I6 1-758)
# T3 sequence (looked up): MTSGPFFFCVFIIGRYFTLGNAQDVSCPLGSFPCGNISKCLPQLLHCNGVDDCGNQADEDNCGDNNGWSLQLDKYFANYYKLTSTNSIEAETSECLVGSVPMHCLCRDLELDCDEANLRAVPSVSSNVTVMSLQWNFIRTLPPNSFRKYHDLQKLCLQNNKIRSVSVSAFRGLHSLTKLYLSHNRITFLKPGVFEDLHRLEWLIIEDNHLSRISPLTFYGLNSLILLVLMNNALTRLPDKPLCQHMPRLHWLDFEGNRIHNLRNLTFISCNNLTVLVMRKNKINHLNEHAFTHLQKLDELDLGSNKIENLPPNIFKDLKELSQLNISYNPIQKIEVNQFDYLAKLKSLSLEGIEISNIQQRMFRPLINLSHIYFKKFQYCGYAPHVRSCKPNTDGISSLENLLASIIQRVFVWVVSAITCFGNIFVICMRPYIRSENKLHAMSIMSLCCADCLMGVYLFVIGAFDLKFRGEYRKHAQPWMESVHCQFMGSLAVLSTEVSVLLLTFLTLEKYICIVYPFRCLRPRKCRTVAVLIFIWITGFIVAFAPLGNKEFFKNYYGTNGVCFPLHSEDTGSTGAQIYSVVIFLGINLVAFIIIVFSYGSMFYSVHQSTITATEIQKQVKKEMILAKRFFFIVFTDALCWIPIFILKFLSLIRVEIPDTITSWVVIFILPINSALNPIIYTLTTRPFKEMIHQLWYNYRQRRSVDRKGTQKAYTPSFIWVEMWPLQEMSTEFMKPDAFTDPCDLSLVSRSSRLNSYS
# T4: cynomolgus monkey RXFP1 (cynomolgus monkey, UniProt H9ERA2 1-757 (rhesus entry))
# T4 sequence: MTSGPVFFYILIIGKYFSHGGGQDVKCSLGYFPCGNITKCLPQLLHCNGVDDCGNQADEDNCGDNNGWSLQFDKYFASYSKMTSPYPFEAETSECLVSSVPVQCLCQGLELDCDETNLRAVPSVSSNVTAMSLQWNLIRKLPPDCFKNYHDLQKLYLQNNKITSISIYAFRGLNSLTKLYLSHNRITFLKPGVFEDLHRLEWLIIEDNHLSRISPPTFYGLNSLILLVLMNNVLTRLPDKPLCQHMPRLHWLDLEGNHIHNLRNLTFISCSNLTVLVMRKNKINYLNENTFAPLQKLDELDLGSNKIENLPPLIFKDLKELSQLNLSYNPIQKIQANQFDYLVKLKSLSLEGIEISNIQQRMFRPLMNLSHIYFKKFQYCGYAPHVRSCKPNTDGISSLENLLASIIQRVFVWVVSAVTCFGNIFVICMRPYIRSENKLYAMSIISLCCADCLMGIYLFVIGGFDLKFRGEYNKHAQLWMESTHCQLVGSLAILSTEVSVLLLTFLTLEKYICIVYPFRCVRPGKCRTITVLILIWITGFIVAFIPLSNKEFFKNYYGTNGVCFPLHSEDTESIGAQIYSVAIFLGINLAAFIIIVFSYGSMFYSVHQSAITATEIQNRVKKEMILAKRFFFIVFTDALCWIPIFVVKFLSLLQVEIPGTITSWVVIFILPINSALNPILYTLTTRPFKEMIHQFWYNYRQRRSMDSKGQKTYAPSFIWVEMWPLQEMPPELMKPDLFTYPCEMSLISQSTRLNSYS
# T5: human RXFP3 (human, UniProt Q9NSD7 1-469)
# T5 sequence (looked up): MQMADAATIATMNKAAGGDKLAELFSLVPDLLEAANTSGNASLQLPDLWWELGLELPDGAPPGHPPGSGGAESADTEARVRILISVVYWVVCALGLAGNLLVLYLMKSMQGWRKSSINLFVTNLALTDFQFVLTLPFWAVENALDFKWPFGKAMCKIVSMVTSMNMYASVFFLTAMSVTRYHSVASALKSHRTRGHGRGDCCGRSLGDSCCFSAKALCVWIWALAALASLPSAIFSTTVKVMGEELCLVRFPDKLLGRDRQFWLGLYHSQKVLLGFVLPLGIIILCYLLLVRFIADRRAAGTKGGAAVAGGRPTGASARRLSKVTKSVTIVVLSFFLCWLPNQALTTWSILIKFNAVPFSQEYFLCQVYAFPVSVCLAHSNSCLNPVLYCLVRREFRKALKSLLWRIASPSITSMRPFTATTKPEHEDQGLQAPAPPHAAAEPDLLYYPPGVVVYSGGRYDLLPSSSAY
# B1: wild-type relaxin (human relaxin 2) (ligand)
# chain 1: QLYSALANKCCHVGCTKRSLARFC
# chain 2: DSWMEEVIKLCGRELVRAQIAICGMSTWS
# modifications: disulfide I:10-I:15, I:11-II:11, I:24-II:23
# Legend:
# Experiment in all cases: cell-based or functional assay
# [1] = target: T1, human RXFP1
# [2] = target: T2, mouse RXFP1
# [3] = target: human RXFP4 (human, UniProt Q8TDU9 1-374)
# [4] = target: T3, rat RXFP1
# [5] = target: T1, human RXFP1; remark: listed apart in the source
# [6] = target: dog RXFP1 (dog)
# [7] = target: T4, cynomolgus monkey RXFP1
# [8] = target: T5, human RXFP3
# Chain of human RXFP4 (Q8TDU9 whole entry): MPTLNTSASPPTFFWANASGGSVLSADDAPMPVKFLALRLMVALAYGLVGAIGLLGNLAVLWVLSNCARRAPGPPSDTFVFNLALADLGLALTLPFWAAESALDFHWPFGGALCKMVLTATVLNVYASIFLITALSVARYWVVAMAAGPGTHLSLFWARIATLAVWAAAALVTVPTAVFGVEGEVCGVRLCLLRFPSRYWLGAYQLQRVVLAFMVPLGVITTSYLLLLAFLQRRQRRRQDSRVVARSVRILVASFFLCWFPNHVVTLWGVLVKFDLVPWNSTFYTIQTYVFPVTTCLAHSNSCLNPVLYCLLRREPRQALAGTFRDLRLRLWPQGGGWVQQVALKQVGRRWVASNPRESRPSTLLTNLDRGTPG
binder,measurement,setting,value
B1,"Functional Assay Raw EC50 Values [ng/mL]; cAMP increase in THP-1 cells, 11/4/2010",[1],1.5 ng/mL
same,"Functional Assay Raw EC50 Values [ng/mL]; cAMP increase in THP-1 cells, 11/5/2010",[1],1.5 ng/mL and 1 ng/mL
same,"cAMP Assay EC50 (nM), mouse RXFP1/CHO-K1 cells",[2],0.1 nM
same,"cAMP Assay EC50 (nM), inhibition of forskolin-induced cAMP, human RXFP4/CHO-K1 cells",[3],> 3000 nM
same,"cAMP Assay EC50 (nM), rat RXFP1/CHO-K1 cells",[4],0.03 nM
same,"cAMP Assay EC50 (nM), THP-1 cells",[5],0.3 nM
same,"cAMP Assay EC50 (nM), hRXFP1/CHO-K1 cells",[5],0.1 nM
same,"cAMP Assay EC50 (nM), dog RXFP1/CHO-K1 cells",[6],0.56 nM
same,"cAMP Assay EC50 (nM), cyno RXFP1/CHO-K1 cells",[7],0.06 nM
same,"cAMP Assay EC50 (nM), inhibition of forskolin-induced cAMP, human RXFP3/CHO-K1 cells",[8],> 3000 nM

# — US20240189392A1 (AMBRX, published 2024)
